1 molecule from patent publication US20150219635A1 (UCB, published 2015) can be followed below.

For assay [1], the target named is T1, Fcε3-4 (sub-fragment of IgE-Fc lacking the Cε2 domains) (human, UniProt P01854-1 209-428, limits assumed).
T1 construct: domain: Fcε3-4 (Cε3-Cε4); Production and any glycosylation site mutations not described
As to the kind of experiment: ITC, Fcε3-4 titrated into Fab, 1:1 binding model. The procedure:
(§1) Experiments were carried out using a Microcal iTC200 calorimeter (GE Healthcare) at 20° C. in PBS buffer pH 7.4. Depending on the final ratio required, 25-30 μM of protein was used in the calorimeter cell and 10-20 fold higher concentrations were used in the syringe. The number and volume of injections were varied as appropriate. Heats of dilution were subtracted from the data before analysis. […] Analyses were carried out using MicroCal Origin, using a 1:1 binding model when IgE-Fc or Fcε3-4 was titrated into Fab, or a sequential 1:1 binding model when Fab was titrated into IgE-Fc or Fcε3-4.
(§2) One way to establish experimentally that IgE-Fc adopts an […] as it flips between two bent conformations, is to determine the number of Fab binding sites that are available for binding: if rigidly and exclusively bent, only one site will initially be accessible, but if it can flip, then two sites are accessible. We therefore studied the interaction between Fab and IgE-Fc by isothermal titration calorimetry (ITC) and compared with the binding to Fcε3-4 which, lacking the Cε2 domains, always has two accessible sites.

For assay [2], the target named is T1, Fcε3-4 (sub-fragment of IgE-Fc lacking …). As to the kind of experiment: stopped-flow tryptophan fluorescence, Fab in excess over Fcε3-4, two-step binding; column koff. As to the method: (§3) Experiments were carried out using a Chirascan Plus (Applied Photophysics Ltd) with a stopped-flow attachment at 20° C. in PBS buffer pH 7.4 and with pseudo-first order protein concentrations varied as required. Fluorescence was excited at 280 nm (1 nm slit width) and emitted fluorescence above 305 nm detected with a long-band pass. 6-10 runs were averaged for each experiment. Data were collected and analyzed using supplied software according to the manufacturer's instructions. Experimental transients were fitted either to single-exponential (Eq.1; [IgE-Fc] or [Fcε3-4]>[Fab] and only Fab¹ binding observable) or double-exponential (Eq.2; [Fab]>[IgE-Fc] or [Fcε3-4] and binding of both Fab¹ and Fab² observable) equations: […]
(§4) where F is the observed fluorescence, ΔFₙ is the fluorescence amplitude change for the nth transient, kobsn is the pseudo-first order rate constant for the nth step and Fₑ is the end-point fluorescence. The bimolecular association rate constants for Fab¹ (k₊₁) and Fab² (k₊₂) binding were determined by fitting the linear concentration dependences of kobs1 and kobs2 to Eq. 3: […]

The target is the same in assay [3]. As to the kind of experiment: stopped-flow tryptophan fluorescence, Fcε3-4 in excess over Fab (1:1 complex). As to the method:
as §3, §4

For assay [4] the target is unchanged. As to the kind of experiment: stopped-flow tryptophan fluorescence, Fab in excess over Fcε3-4, two-step binding; column kon2. As to the method: as §3, §4
Assay [5] shares this target. As to the kind of experiment: ITC, Fab titrated into Fcε3-4, sequential binding model; second Fab. As to the method:
as §1, §2
For orientation: In ITC the heat of successive injections is recorded.

For assay [6] the target is unchanged. In words: ITC, Fab titrated into Fcε3-4, sequential binding model; first Fab. As to the method: as §1, §2
Assay [7] shares this target. In words: stopped-flow tryptophan fluorescence, Fab in excess over Fcε3-4, two-step binding; column kon. As to the method:
as §3, §4

T1 sequence (P01854 other isoform, or with tags, fused parts or gaps limits assumed): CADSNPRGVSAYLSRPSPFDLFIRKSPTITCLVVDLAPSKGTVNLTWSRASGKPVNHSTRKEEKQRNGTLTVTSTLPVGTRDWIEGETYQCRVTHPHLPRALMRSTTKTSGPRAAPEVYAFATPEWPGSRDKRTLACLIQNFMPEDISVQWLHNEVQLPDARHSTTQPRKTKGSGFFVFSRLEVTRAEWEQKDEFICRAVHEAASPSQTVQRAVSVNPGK

B1: Fab7 (anti-human IgE Fab, human IgG1 Fab format) (Fab, V domains shown)
VH: QVQLQQSGPGLVKPSQTLSLTCGISGDSVSSNSAAWNWLRQSPSRGLEWLGRTYYRSKWYNDYAVSMKSRITINPDTSRNQFSLQLNSVTPEDTAVYYCARDGEISYDYYYYGMDVWGRGTLVTVSS
VL: QSVLTQPPSASGTPGQRVTISCSGSSSNIGNNGVNWYQQVPGKPPKLLIYYDDLLPSGVSDRFSGSKSGTSASLAISGLQSEDEADYYCEAWDDSLDGVVFGGGTKLTVLG
notes: Expressed transiently in CHO cells; also called anti-IgE Fab; Fab^1
As to B1, the results for the Kd in assay [1], in assay [5] and in assay [6] were 90 nM, 980 nM and 34 nM, respectively. This molecule also displayed an off-rate (koff) in assay [2] of 0.95 s⁻¹. Also, the values for the kon in assay [3], in assay [4] and in assay [7] were 1e+06 M⁻¹ s⁻¹, 370000 M⁻¹ s⁻¹ and 1e+06 M⁻¹ s⁻¹, respectively.

The term Kd denotes the free concentration of one partner at which half of the binding sites on the other are occupied at equilibrium, for simple one-to-one binding. A higher Kd goes with weaker binding. As usually defined, the koff is the first-order rate constant of dissociation. A lower koff goes with slow dissociation. As a reminder, the kon is the rate constant with which the complex forms.
